Assay results published in patent US20230272049A1.

Tests used:
108 of 110 HLA types = experiment: cell-based or functional assay
[1] = molecular target: the alloreactive alleles (2 of 110 HLA types); experiment: cell-based or functional assay

- inhibition on target cell growth after 48 h of co-culture (alloreactivity screen) (% target cell inhibition) (108 of 110 HLA types): < 20
- inhibition on target cell growth after 48 h of co-culture (alloreactivity screen) (% target cell inhibition) [1]: > 20
B1: E7-11-28 MGTM (MG-modified TCR E7-11-28) (TCR)
TCR alpha: GQQVMQIPQYQHVQEGEDFTTYCNSSTTLSNIQWYKQRPGGHPVFLIQLVKSGEVKKQKRLTFQFGEAKKNSSLHITATQTTDVGTYFCAGIGSSNTGKLIFGQGTTLQVKPDIQNPDPAVYQLRDSKSSDKSVCLFTDFDSQTNVSQSKDSDVYITDKTVLDMRSMDFKSNSAVAWSNKSDFACANAFNNSIIPEDTFFPSSDVPCDVKLVEKSFETDTNLNFQNLLVIVLRILLLKVAGFNLLMTLRLWS
TCR beta: EPEVTQTPSHQVTQMGQEVILRCVPISNHLYFYWYRQILGQKVEFLVSFYNNEISEKSEIFDDQFSVERPDGSNFTLKIRSTKLEDSAMYFCAITGRVSYEQYFGPGTRLTVTEDLNKVFPPEVAVFEPSKAEIAHTQKATLVCLATGFFPDHVELSWWVNGKEVHSGVSTDPQPLKEQPALNDSRYCLSSRLRVSATFWQNPRNHFRCQVQFYGLSENDEWTQDRAKPVTQIVSAEAWGRADCGITSASYHQGVLSATILYEILLGKATLYAVLVSALVLMAMVKRKDFGSGRAKRSGSG
